Laboratory results reported in publication PMC9603813, “Genome-Wide Analysis Reveals that PhoP Regulates Pathogenicity in Riemerella anatipestifer”.

B1: KYF39_07405 (OMPbB) probe (dsDNA)
DNA 1: ATAAAGTGGCAAATTTAACTTTAATAATTAAAAGA
DNA 2: TCTTTTAATTATTAAAGTTAAATTTGCCACTTTAT
B2: KYF39_06865 motif probe (dsDNA)
DNA 1: CGTTAAAAAATAAAGCGAGGTTTTGTTGTTTTAAA
DNA 2: TTTAAAACAACAAAACCTCGCTTTATTTTTTAACG
B3: KYF39_00915 (transposase) probe (dsDNA)
DNA 1: TGAAAATTTCAAATTTAACTAAAGCTTATAGCAAT
DNA 2: ATTGCTATAAGCTTTAGTTAAATTTGAAATTTTCA
B4: dedA motif probe (dsDNA)
DNA 1: ATCTATAAAGAGATTTAACAAATTTTATAATTCTA
DNA 2: TAGAATTATAAAATTTGTTAAATCTCTTTATAGAT
B5: phoPR motif probe (dsDNA)
DNA 1: AAACTCATAATAATCTGTTAAAAAACTCGTTTTTA
DNA 2: TAAAAACGAGTTTTTTAACAGATTATTATGAGTTT
B6: KYF39_00905 (transporter) probe (dsDNA)
DNA 1: CAAAAAATATTTCATTAACAGAATAGACAATCATA
DNA 2: TATGATTGTCTATTCTGTTAATGAAATATTTTTTG

Tests used:
Conditions in all cases: protein: recombinant; tags: His6 (pET-28a); chain copies: 2; label: 5' biotin on strand 1; blunt
His6-PhoP [1] = molecular target: T1, His6-PhoP (Riemerella anatipestifer RA-YM, UniProt E4TAE7 2-228); assay: EMSA
T1 sequence: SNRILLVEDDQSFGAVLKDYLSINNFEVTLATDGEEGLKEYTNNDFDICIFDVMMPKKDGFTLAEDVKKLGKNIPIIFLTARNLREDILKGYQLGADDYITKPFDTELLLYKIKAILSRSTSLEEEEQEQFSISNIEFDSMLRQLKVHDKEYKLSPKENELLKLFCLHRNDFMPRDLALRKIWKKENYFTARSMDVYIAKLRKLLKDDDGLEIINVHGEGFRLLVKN

His6-PhoP [2] = molecular target: T1, His6-PhoP; assay: EMSA; unphosphorylated
His6-PhoP [3] = molecular target: T1, His6-PhoP; assay: EMSA; phosphorylated by acetyl phosphate
His6-PhoP-DBD = molecular target: T2, His6-PhoP-DBD (Riemerella anatipestifer RA-YM, UniProt E4TAE7 130-228); assay: EMSA
T2 sequence: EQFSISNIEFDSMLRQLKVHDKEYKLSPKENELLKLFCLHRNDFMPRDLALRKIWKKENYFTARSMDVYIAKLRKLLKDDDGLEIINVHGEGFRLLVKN

Binder | binding result (His6-PhoP [1]) | Kd (His6-PhoP [2]) [nM] | Kd (His6-PhoP [3]) [nM] | binding result (His6-PhoP-DBD)
B1 | binds | – | – | –
B2 | binds | – | – | –
B3 | – | 29.8 | 33.9 | –
B4 | binds | – | – | –
B5 | binds | – | – | no binding
B6 | – | 39.2 | 39.5 | –
